Experimental data as given in article PMC6234845 (Biochemistry, 2018).

Assays:
[1] = target: Src13-GCN4-EGFP / Src13-GCN4-mCH; test: PIE-FCCS
PIE-FCCS = target: the molecule itself; test: PIE-FCCS

Row | Molecule | fc, fraction correlated [1] | fc (mean), fraction correlated (PIE-FCCS) | fc (median), fraction correlated (PIE-FCCS)
1 | Src13-GCN4-EGFP / Src13-GCN4-mCH | 0.13 | – | –
2 | wild type rod opsin-EGFP / rod opsin-mCherry (receptor, mouse, UniProt P15409 1-348, looked up) MNGTEGPNFYVPFSNVTGVVRSPFEQPQYYLAEPWQFSMLAAYMFLLIVLGFPINFLTLYVTVQHKKLRTPLNYILLNLAVADLFMVFGGFTTTLYTSLHGYFVFGPTGCNLEGFFATLGGEIALWSLVVLAIERYVVVCKPMSNFRFGENHAIMGVVFTWIMALACAAPPLVGWSRYIPEGMQCSCGIDYYTLKPEVNNESFVIYMFVVHFTIPMIVIFFCYGQLVFTVKEAAAQQQESATTQKAEKEVTRMVIIMVIFFLICWLPYASVAFYIFTHQGSNFGPIFMTLPAFFAKSSSIYNPVIYIMLNKQFRNCMLTTLCCGKNPLGDDDASATASKTETSQVAPA | – | 0.114 | 0.107
